Assay [1] deals with C-terminal domains of the flavodiiron protein CD1623 from Clostridium difficile 630 (FDP_F_Cter), residues 401-843 (Clostridium difficile 630). The assay is described as follows: SEC; each protein loaded separately at room temperature on a 25 mL Superdex S-200 10/300 GL column; 20 mM Tris-HCl pH 7.5, 18% glycerol, 150 mM NaCl; calibrated with mass standards; data not shown. (In general: In gel filtration, larger molecules generally elute earlier.)

The target in assay [2] is Class F flavodiiron protein CD1623 from Clostridium difficile 630 (FDP_F) (Clostridium difficile 630). Described as above.

The text below walks through data of PMC6033852.

What is called stoichiometry N is the number of molecules, sites or subunits per partner or assembly.

For the substance “C-terminal domains of the flavodiiron protein CD1623 from Clostridium difficile 630 (FDP_F_Cter), residues 401-843 (domain or fragment)”, in assay [1], the stoichiometry N was found to be 2. The substance “Class F flavodiiron protein CD1623 from Clostridium difficile 630 (FDP_F) (enzyme)” had a stoichiometry N in assay [2] of 2.
